According to patent US7326418B2, “Identification of novel factors that block programmed cell death or apoptosis by targeting JNK” (University of Chicago, priority 2001, dated 2008):
Entries after “also recorded” stand apart in the source; their conditions may differ. Values belong to the molecule of their own block, whether it stands above or below them.

Biological target: T1, JNKK2/MKK7 (Homo sapiens, UniProt O14733, Q133P/Q94H)
T1 construct: expressed in transfected cells; host or cells: HEK-293, TNFα-treated or untreated; anti-FLAG immunoprecipitate
T1 sequence (O14733 1-401 Q94H/Q133P limits assumed): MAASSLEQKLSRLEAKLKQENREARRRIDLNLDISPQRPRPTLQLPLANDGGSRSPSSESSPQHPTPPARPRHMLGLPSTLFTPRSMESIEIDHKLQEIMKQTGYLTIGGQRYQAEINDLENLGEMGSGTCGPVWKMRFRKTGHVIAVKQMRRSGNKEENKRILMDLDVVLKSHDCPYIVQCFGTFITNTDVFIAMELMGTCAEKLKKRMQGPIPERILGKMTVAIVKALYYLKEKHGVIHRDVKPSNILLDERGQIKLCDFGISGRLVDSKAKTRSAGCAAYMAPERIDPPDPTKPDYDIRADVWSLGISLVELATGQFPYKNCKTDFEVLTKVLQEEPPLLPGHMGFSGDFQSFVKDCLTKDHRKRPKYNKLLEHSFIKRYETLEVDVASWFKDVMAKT
Experiment: Kinase assay of immunoprecipitated FLAG-JNKK2/MKK7 (GST-JNK1 substrate) pre-incubated with recombinant Gadd45β proteins or peptides
Format: biochemical
Details: for inhibition of JNKK2/MKK7 activity (GST-JNK1 phosphorylation): FLAG-JNKK2 from 293 cells, 10 min pre-incubation with increasing concentrations of recombinant protein
Procedure: Next, the functional consequences, in vitro, of the physical interactions of Gadd45β with kinases in the JNK pathway were assessed. Murine and human, full-length Gadd45J3 proteins were purified from E. coli as GST-Gadd45β and His6-tagged Gadd45β (His6 disclosed as SEQ ID NO: 46), respectively, according to standard procedures. Prior to employing these proteins in in vitro assays, purity of all recombinant polypeptides was assured by >98%, by performing Coomassie blue staining of SDS polyacrylamide gels. Then, the ability of these proteins, as well as of control GST and His6-EF3 (His6 disclosed as SEQ ID NO: 46)proteins, to inhibit kinases in the JNK pathways was monitored in vitro. FLAG-tagged JNKK2, JNKK1, MKK3, and ASK1 were immunoprecipitated from transiently transfected 293 cells using anti-FLAG antibodies and pre-incubated for 10 minutes with increasing concentrations of recombinant proteins, prior to the addition of specific kinase substrates (i.e. GST-JNK1 with JNKK1 and JNKK2; GST-p38[…] with MKK3; GST-JNNK1 or GST-JNKK2 with ASK1). […] These findings indicate that, upon binding to Gadd45β, JNKK2 is effectively inactivated.
A question was whether Gadd45β inhibited active MKK7, in vitro. FLAG-MKK7 was immunoprecipitated from TNFα-treated or untreated 293 cells, and kinase assays were performed in the presence of purified His6-Gadd45β (His6 disclosed as SEQ ID NO: 46), GST-Gadd45β, or control proteins (FIG. 28d; see also FIG. 28g). […] Consistent with the in vivo findings (FIG. 27), the inhibitory activity of Gadd45β was specific. […] Indeed, the effects of Gadd45β on MKK7 phosphorylation by TNFα may be due inhibition of the MKK7 ability to auto-phoshorylate and/or to serve as substrate for upstream kinases. Altogether, the findings identify MKK7 as a target of Gadd45β, and of NF-[…]B, in the JNK cascade. Of interest, MKK7 is a selective activator of JNK, and its ablation abolishes JNK activation by TNFα. Thus, blockade of MKK7 is sufficient on its own to explain the effects of Gadd45β on JNK signaling—i.e. its specific and near-complete suppression of this signaling.
Active MKK7 was immunoprecipitated from TNFα-activated 293 cells and MKK7 kinase assays were performed using GST-JNK1 substrates and pure recombinant Gadd45β polypeptides (FIG. 37B; a schematic diagram representing the Gadd45βpolypeptides used is shown in FIG. 37A). […] MKK7 kinase assays were performed as in FIG. 37B, except that pure synthetic Gadd45, peptides (whose sequences are shown in FIG. 37C) were used instead of pure recombinant Gadd45β proteins. The amino acid region between amino acids 58 and 77 of Gadd45βis used for the Gadd45β-mediated inhibition of MKK7. […]

B1: GST-Gadd45β: full-length murine Gadd45β directly fused to GST, purified from E. coli (protein)
chain: MTLEELVASDNAVQKMQAVTAAVEQLLVAAQRQDRLTVGVYEAAKLMNVDPDSVVLCLLAIDEEEEDDIALQIHFTLIQSFCCDNDIDIVRVSGMQRLAQLLGEPAETLGTTEARDLHCLLVTNCHTDSWKSQGLVEVASYCEESRGNNQWVPYISLEER
modifications: left off: a dimerising Fc or GST
notes: full-length murine Gadd45β directly fused to GST, purified from E. coli
inhibition of JNKK2/MKK7 activity (GST-JNK1 phosphorylation): blocked GST-JNK1 phosphorylation by MKK7, in a dose-dependent manner; also recorded: effectively suppressed

JNKK2 auto-phosphorylation (in vitro): inhibited
B2: Gadd45β: purified recombinant His6-tagged Gadd45β protein; also used generically for the recombinant Gadd45β proteins (protein, UniProt O75293 1-160, looked up)
Growth arrest and DNA …: MTLEELVACDNAAQKMQTVTAAVEELLVAAQRQDRLTVGVYESAKLMNVDPDSVVLCLLAIDEEEEDDIALQIHFTLIQSFCCDNDINIVRVSGMQRLAQLLGEPAETQGTTEARDLHCLLVTNPHTDAWKSHGLVEVASYCEESRGNNQWVPYISLQER
modifications: His6 tag
notes: purified recombinant His6-tagged Gadd45β protein; also used generically for the recombinant Gadd45β proteins

B3: His6-Gadd45β: human full-length Gadd45β purified from E. coli as His6-tagged protein (protein, UniProt O75293 1-160, looked up)
chain: B2 Growth arrest and DNA …
modifications: full-length His6 tag
notes: human full-length Gadd45β purified from E. coli as His6-tagged protein
inhibition of JNKK2/MKK7 activity (GST-JNK1 phosphorylation): blocked GST-JNK1 phosphorylation by MKK7, in a dose-dependent manner; also recorded: effectively suppressed
